Key:
[1] = test system: MS2 coat protein; test: apparent KD of MS2 coat protein, switch ON state; designed switch direction (-1 OFF switch, 1 ON switch): -1; higher = weaker reporter binding; conditions: FMN input: 0 or 200 uM; Eterna round: R93 (includes R88 designs)
Summary of the method: (§1)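 Each design's apparent KD comes from the median of binding-curve fits to its normalised clusters. Those clusters carried RNA switches transcribed on-chip from Illumina sequencing clusters. SNAP-549-labelled MS2 coat protein was titrated onto them in twofold steps (0.7 or 1.5 nM to 3 µM; per step 0.8–1.5 h down to 10–20 min). Conditions were 100 mM Tris-HCl pH 7.5, 80 mM KCl, 4 mM MgCl2, without or with constant ligand.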

[2] = test system: MS2 coat protein; test: apparent KD of MS2 coat protein, switch OFF state (with FMN for OFF switches, without FMN for ON switches); designed switch direction (-1 OFF switch, 1 ON switch): -1; higher = weaker reporter binding; conditions: FMN input: 0 or 200 uM; Eterna round: R93 (includes R88 designs)
Summary of the method: as §1

AAAAAACAUGAGGAUCACCCAUGUGAGGAUAUCGGAAAAGGAAAAAUAAAAAAGAAGACGAGAAGGCACACCAA [Mat - Exclusion 1 - Eli mod - D74]
apparent KD of MS2 coat protein [1]: 20.9 nM
apparent KD of MS2 coat protein [2]: 24.6 nM

AAAUUGUCAGGAUAUCUUAGAAUAGUCAAAGACUAGAGCUAAGAGAAGGGACAUGAGGAUCACCCAUGUAAAAC [May 91]
apparent KD of MS2 coat protein [1]: 61.8 nM
apparent KD of MS2 coat protein [2]: 56.6 nM

AAUAACAGAGGAUAUGCAAAAAUAAGCGGAAACGCAAGAAAACAUGAGGAUCACCCAUGUAGAAGGCUGGAUAA [Tetraloop hairpin BlockHead Variations]
apparent KD of MS2 coat protein [1]: 24.6 nM
apparent KD of MS2 coat protein [2]: 16.7 nM

AAGGGACAUGAGGAUCACCCAUGUCAGGAUAUGCUAUGGAAAUAAAAAAUAAAACAUAGCAGAAGGGACAAAAA [Mat - Exclusion 1 - Eli mod - D33]
apparent KD of MS2 coat protein [1]: 41.2 nM
apparent KD of MS2 coat protein [2]: 67.6 nM

AAUGAUUUAGGAUAUACAUGAGGAUCACCCAUGUUCAAAUCGUGGGUCAGGUGAGAAGGUAGAAGGAAAUCACU [Soberior]
apparent KD of MS2 coat protein [1]: 113 nM
apparent KD of MS2 coat protein [2]: 185 nM

GAAAAGUGAGGAUAUGCGAAGGCGUCUGAUAGACGAGGCUAGCAGAAGGCACAUGAGGAUCACCCAUGUGGGAG [Mat - Exclusion 4 - Eli mod - D92]
apparent KD of MS2 coat protein [1]: 61.9 nM
apparent KD of MS2 coat protein [2]: 76.4 nM

AAAAAACAUGAGGAUCACCCAUGUGAGGAUAUGACGUAAAUAAAGAAAGAAGAAAUCGUCAGAAGGCACAAAAA [55%, Disencluded 2, 6]
apparent KD of MS2 coat protein [1]: 42.3 nM
apparent KD of MS2 coat protein [2]: 41 nM

AGUAUGCGAGGAUAUACAUGAGGAUCACCCAUGUGAGAGAUAAAAGUGAGAAAGACAAGUAGAAGGCGCGUACA [JL Lego Mod 23]
apparent KD of MS2 coat protein [1]: 54.8 nM
apparent KD of MS2 coat protein [2]: 354 nM

AGAAUACAUGAGGAUCACCCAUGUAAGGAUAUGUGAAGAAAAAGAAAAGAAAAGAAACACAGAAGGUACAAAAG [EX 1 May 18]
apparent KD of MS2 coat protein [1]: 30 nM
apparent KD of MS2 coat protein [2]: 65.8 nM

AAAAAACAUGAGGAUCACCCAUGUAAGGAUAUGCAAAAUAAAAGAAAUAAAAAGAAAAGCAGAAGGUACAUUAA [JL wbt mod 9]
apparent KD of MS2 coat protein [1]: 23.6 nM
apparent KD of MS2 coat protein [2]: 37.9 nM

AAGAAGUCAGGAUAUGCUAAAGAAAUGAAAAGAAAGAAAGAACAUGAGGAUCACCCAUGUAGAAGGGACAAGAA [Dedumose I]
apparent KD of MS2 coat protein [1]: 47.1 nM
apparent KD of MS2 coat protein [2]: 38.3 nM

AAAUGACUAGGAUAUACAUGAGGAUCACCCAUGUGUUAAAAUAAAUACACAAAAGAAAGUAGAAGGAGUCAAAA [Ex 3 May 15]
apparent KD of MS2 coat protein [1]: 22.3 nM
apparent KD of MS2 coat protein [2]: 59.7 nM

AAAAAUGGAGGAUAUACAUGAGGAUCACCCAUGUGAAACAAAACAAAACACAAAAAAAGUAGAAGGCCAAAAAA [Gilly Gone Silly 4 - Jieux - Exclusion 3]
apparent KD of MS2 coat protein [1]: 33.1 nM
apparent KD of MS2 coat protein [2]: 38.2 nM

AAGGGACAUGAGGAUCACCCAUGUCAGGAUAUGCUAUGGAAAAAUAAAAUAAAACAUAGCAGAAGGGAUAAAAA [Mat - Exclusion 1 - Eli mod - D32]
apparent KD of MS2 coat protein [1]: 23 nM
apparent KD of MS2 coat protein [2]: 51.1 nM

AACAGUACAGGAUAUACAUGAGGAUCACCCAUGUGAAAAUUAAGUGGCGUACCACAAUGUAGAAGGGUACUGGA [Moding Maslow Revisited (73) 24]
apparent KD of MS2 coat protein [1]: 110 nM
apparent KD of MS2 coat protein [2]: 83.7 nM

AAAAAACAUGAGGAUCACCCAUGUGAGGAUAUACAAAGAAAGACAGGCAAGUAAAGAGGUAGAAGGCGCAAAAA [Default title]
apparent KD of MS2 coat protein [1]: 15.4 nM
apparent KD of MS2 coat protein [2]: 18.2 nM

AACUAACAUGAGGAUCACCCAUGUCAGGAUAUGCAAAGAACGAUCGAACGAACGAUAAGCAGAAGGGACAAAAA [Amethyst 96]
apparent KD of MS2 coat protein [1]: 29.8 nM
apparent KD of MS2 coat protein [2]: 42.1 nM

AAAAACCUAGGAUAUACAUGAGGAUCACCCAUGUAAAGAAACAAAAAGGGAAAAACAAGUAGAAGGAGGAAGAA [JR_Exc003_Sub1202]
apparent KD of MS2 coat protein [1]: 16.3 nM
apparent KD of MS2 coat protein [2]: 18.2 nM

AACUGACAUGAGGAUCACCCAUGUCAGGAUAUGACUUGAAAAAUAAAAUAAAAACAUGUCAGAAGGGACAUGGG [Design 54 :P Sub-opt H]
apparent KD of MS2 coat protein [1]: 20.2 nM
apparent KD of MS2 coat protein [2]: 18.9 nM

CUCAUGUCAGGAUAUCAGUAGUAAAAAAAAAAAAUUACUACUGAGAAGGGACAUGAGGAUCACCCAUGUCCCUU [EX4 301: Super Stable 1]
apparent KD of MS2 coat protein [1]: 20.4 nM
apparent KD of MS2 coat protein [2]: 16.7 nM

AAGACUACAGGAUAUACAUGAGGAUCACCCAUGUAACUGACAAGUAGAGGACGGAGAAGUAGAAGGGUAGUCAA [Ruby 35]
apparent KD of MS2 coat protein [1]: 13.6 nM
apparent KD of MS2 coat protein [2]: 26.7 nM

UAAAGACAUGAGGAUCACCCAUGUGAGGAUAUAGGUGUAUGCAAAAAAAAGCAAAAAACUAGAAGGCACAGAAA [JR_Exc001_Sub304]
apparent KD of MS2 coat protein [1]: 59.6 nM
apparent KD of MS2 coat protein [2]: 68.9 nM

AAAUUGUCAGGAUAUCUUAGAACUGUCAAAGACAGGAGCUAAGAGAAGGGACAUGAGGAUCACCCAUGUAAAAC [May 90]
apparent KD of MS2 coat protein [1]: 64 nM
apparent KD of MS2 coat protein [2]: 88.5 nM

CUCUUGUGAGGAUAUGAAAGAAAAGAAGAGAAAGAAAAGAAUCAGAAGGCACAUGAGGAUCACCCAUGUAAGAA [EteRNA is fun!]
apparent KD of MS2 coat protein [1]: 27.4 nM
apparent KD of MS2 coat protein [2]: 106 nM

AGCAAGAGAGGAUAUACAUAGGAAAAAAAAGUUAGAUCCCUACAUGAGGAUCACCCAUGUAGAAGGCUCUGGCA [Ex2 Design 153: Sub-opt 17]
apparent KD of MS2 coat protein [1]: 42.2 nM
apparent KD of MS2 coat protein [2]: 37.1 nM

AAAAAGUUAGGAUAUACAUGAGGAUCACCCAUGUACAUAAAUGGAGAAAAAAACAGUAGUAGAAGGGACAAAAA [EX2 Malc#11]
apparent KD of MS2 coat protein [1]: 23.8 nM
apparent KD of MS2 coat protein [2]: 22.2 nM

GGCUAGUCAGGAUAUACGAACAUGUCAAAAGACGUGAAGGGACAUGAGGAUCACCCAUGUAGAAGGGACUAGCG [salish99-ex2-13]
apparent KD of MS2 coat protein [1]: 32.8 nM
apparent KD of MS2 coat protein [2]: 132 nM

AACAGUACAGGAUAUACAUGAGGAUCACCCAUGUGAGAAUAAAGUGGCGUACCACAAAGUAGAAGGGUACUGGA [Mat - Exclusion 3 - JL mod - D20]
apparent KD of MS2 coat protein [1]: 26.7 nM
apparent KD of MS2 coat protein [2]: 148 nM

AAGAAGUGAGGAUAUACAUGAGGAUCACCCAUGUAAAGAAGAAGAGGAGAGAAUAAAGGUAGAAGGCACAAGAA [JR_Exclusion3_Sub4]
apparent KD of MS2 coat protein [1]: 33.6 nM
apparent KD of MS2 coat protein [2]: 39.6 nM

AAAGGAUCAGGAUAUGCGUGGAAAAAGUGUAUUCAAAAAAAACAUGAGGAUCACCCAUGUAGAAGGGAUCCAAA [Normal (20/19)]
apparent KD of MS2 coat protein [1]: 140 nM
apparent KD of MS2 coat protein [2]: 546 nM

AGCUAGCGAGGAUAUACGAACAUGUCAAAAGACGUGAAGGGACAUGAGGAUCACCCAUGUAGAAGGUGCUAGCA [JL 74% mod 7]
apparent KD of MS2 coat protein [1]: 31.8 nM
apparent KD of MS2 coat protein [2]: 70.3 nM

AAAAAUGGAGGAUAUACAUGAGGAUCACCCAUGUGUAAAAAAAAUUACACAAAAGAAAGUAGAAGGCCAUAAAA [Ex 3 Warm]
apparent KD of MS2 coat protein [1]: 59.7 nM
apparent KD of MS2 coat protein [2]: 102 nM

AAAAGCAGAGGAUAUACAUAAUUAUGACGAAAGUCAUAAAAACAUGAGGAUCACCCAUGUAGAAGGCUGCAAAA [MOD of Meechl's MS2 Ex2 (MS2 riboswitches - Exlclusion 2)]
apparent KD of MS2 coat protein [1]: 24.9 nM
apparent KD of MS2 coat protein [2]: 28.1 nM

AAGAAGUGAGGAUAUACAUGAGGAUCACCCAUGUAAAAGAAAGAAAAGGGAAAGAAAAGUAGAAGGCACAAGAA [Maatkare Hatshepsut]
apparent KD of MS2 coat protein [1]: 36.2 nM
apparent KD of MS2 coat protein [2]: 58.3 nM

AAGAAGAGAGGAUAUACAUGAGGAUCACCCAUGUAAAAGAAAGAAAAGGGAAAGAAAAGUAGAAGGCUCAAGAA [Aakheperrure Amenhotep II]
apparent KD of MS2 coat protein [1]: 26.4 nM
apparent KD of MS2 coat protein [2]: 38.3 nM

AAGGGACAUGAGGAUCACCCAUGUCAGGAUAUGCUAUGGAAAUAAAAAAUAAAACAUAGCAGAAGGGACACCAA [Mat - Exclusion 1 - Eli mod - D49]
apparent KD of MS2 coat protein [1]: 24 nM
apparent KD of MS2 coat protein [2]: 39.2 nM

AGUCAUACAGGAUAUACAUGAGGAUCACCCAUGUAUAUCCAAAAAAGGUGAUCCUCAUGUAGAAGGGUAUGACA [EX3 202: Super Stable 2]
apparent KD of MS2 coat protein [1]: 13.7 nM
apparent KD of MS2 coat protein [2]: 26.9 nM

AGCUAGUCAGGAUAUACGAACAUGUCAGAAGACGUGAAGGGACAUGAGGAUCACCCAUGUAGAAGGGACUAGCG [74%, Web mod - With 2 more G's]
apparent KD of MS2 coat protein [1]: 34.9 nM
apparent KD of MS2 coat protein [2]: 117 nM

AAGAAGUCAGGAUAUCGAAGACAGACGAAAAGUCUGUCAAACGAGAAGGGACAUGAGGAUCACCCAUGUAAAGA [Mat - Exaclusion 4 - Eli mod - D73]
apparent KD of MS2 coat protein [1]: 63.1 nM
apparent KD of MS2 coat protein [2]: 61 nM
